Measured values published in the DeepSol protein solubility set.

assay: soluble on expression in E. coli; label from the status in PepcDB or PDB records

| Sequence | soluble on expression in E. coli |
| --- | --- |
| MKWRYGAAAGVESRGPHIRVQTVASQVPRGVCWMARVAVVVKVYPDDVSIDPKTLAERIKSKLPSGYEVLAEGEEPIAFGLKALKLVIAMNEDTEGGTEEVEQLLKNIEGVQEVEVENVSRMQ | soluble |
| GMSEENKIGTYQFVAEPFHVDFNGRLTMGVLGNHLLNCAGFHASDRGFGIATLNEDNYTWVLSRLAIELDEMPYQYEKFSVQTWVENVYRLFTDRNFAVIDKDGKKIGYARSVWAMINLNTRKPADLLALHGGSIVDYICDEPCPIEKPSRIKVTSNQPVATLTAKYSDIDINGHVNSIRYIEHILDLFPIELYQTKRIRRFEMAYVAESYFGDELSFFCDEVSENEFHVEVKKNGSEVVCRSKVIFE | soluble |
| MGSDKIHHHHHHMTFRGGNTGAKHAVVVGSGPNGLTTAAVLAKAGWQVDVYEAAPTPGGAARSESVLGEGTISDLGAAGHPFGVASPAFHYLGLEDHGLEWAYSPFAMAHPLDYGRAGLLETSLPETAKKLGPDARRWKNLHQGLTKNIDKHLANLLGPVLKWPAHPIRMAKFGPFALLPAKRLASAAFETEEARSLFIGSAMHSVTPPHKPMTASLGLLFGALGMSRGWPVAVGGSGRIVDALVNVINHHGGTIHCDSQIDSLSQFRDTDAIILNQTPSQVLKLKGTDLNAGLPQRMSTWKHGPSSYKVDYLLDGPIPWSNPQVGQATTVHVGGSSEEIAFAEAEVAAGRMPERPFIILCQQQVADPSRAREGRHVVWAYAHVPRGFVDKRAALLITAQIERFAPGFRDRIVHSVDTNAEDLEAWNPNLVGGDITAGSALLRRMPTKIGEKTYMASASNAPGGGVHGMPGWWAAQAVLADHR | not soluble |
| MNGRRWMVLAAVVGVSTLSACASQGHDSDETLPTYTPPAWMAEVRAQNEEYANAGVACLAAHGVEGTADNGTFGISYGPQSQGALTHMTDEEADALLTECSESLSLPDYVNNSADEEYDRVLDLRECVIAQGYDMPDAPSREVWTEQWERTRDAWVPYYHEMTLDPDGLERHKVTVEEMNRLQSICVPSTVGATTVSR | not soluble |
| MHLCGVDYYQIDKQGSCKFRFKATQFYRALKNNKVSLRGIKPKDDGTTGQKLQVIPLLEMLISPGVRICDGGKFYNLQYEKAIRSGKMIVALTCKENNKKYVPQSLLSLINQPRKSQSKSLTESHEVIKISKSELNSTSVIEVYDKF | not soluble |
| GHMVDLEQEFALGGRVLAFHGPLMYEAKILKIWDPSSKMYTSIPNDKPGGSSQATKEIKPQKLGEDESIPEEIINGKSFFIHYQGWKSSWDEWVGYDRIRAYNEENIAMKKRLANEAGSTGSAPATGGVKKPHRYR | soluble |
| MVNAEEQQYLNLVQYIINHGEDRPDRTGTGTLSVFAPSPLKFSLRNKTFPLLTTKRVFIRGVIEELLWFIRGETDSLKLREKNIHIWDANGSREYLDSIGLTKRQEGDLGPIYGFQWRHFGAEYIDCKTNYIGQGVDQLANIIQKIRTSPYDRRLILSAWNPADLEKMALPPCHMFCQFYVHIPSNNHRPELSCQLYQRSCDMGLGVPFNIASYALLTCMIAHVCDLDPGDFIHVMGDCHIYKDHIEALQQQLTRSPRPFPTLSLNRSITDIEDFTLDDFNIQNYHPYETIKMKMSI | soluble |
| PNEKFCFEGFLPQKKGRMTKLKSLVDEHRTMVFYESPHRLLKTLTQFAEYFGPERQVSVSREISKIHEETVRGTLSELIEHFTATDPRGEIVIVLAGIDD | not soluble |
| MGSDKIHHHHHHMHPKSPLTMQQSSVFIDSEVLLDDRKFAEAMLLKKDKAGLSRADMVFVLRNLLRLKYYPVAVKFFYDEAEVEKFKAEHEYLVACNPFTFCHFCAESRQKGDVLFGERRTLGCSNARYLFGWKDYDENEIKSHMKYVKDREQAERFVKTKPRLPEGLLAFATAPLHKAKFEPDLVFIICDVLQSYHLYNDYAAAMDVHPIRPNFMMNSAACGGAVWSYVENTINIVPMCSGSYTAGKTEQGEINVFIPWAHFEKLVVRLLERTASQGGASFPRTGETYPGFDICKLCNFLLFRKPKEDE | not soluble |
| AHHHHHHGSAELKVSAIKEGTVIDHIPAGKGLKVIQILGLGELKNGGAVLLAMNVPSKKLGRKDIVKVEGKFLSEEEVNKIALVAPTATVNIIREYKVVEKFKVEIPDVIEGILKCGNPNCITHYEYVTPKFYVISKEPLKVRCHYCERTMEEEEILANL | soluble |
| MGSDKIHHHHHHSCGGKKNSGQLSDTAVQIVKPEFPQIVPFETGIETEQEILLSEIADSIRYIPLETNNKCLIRGLKGSNIIRTKEYFFLPWIDKLFQYTKDGKFIRTLGRKGGGPGEFNWIMQIDVDEKKGLVYMLTTTGKINIYSMETGKFIRAMKVPNIEVSEFAMLRVQDTIAATFMRNNNGKRKERIYLSNLKGDTLKIFNRWDLFDLNSKYRWMISSDIDRYMFHYKSHTCYKEYYNDTLFTITQETLEPRYIFQMGKYSLPIECRFEYLNGDGKRFQEVAAPYIQYNTIETDSYIFMPYSNWAGEKEQERQMAIYDKKAKNCFKVSTGHIKNDLTPGLPLRPITALDSHTLLYVWEAPELLEKAEKTPSILQIEPLKGLNEDDNPVMMIVYLKQP | not soluble |
| MGSDKIHHHHHHMIIGGLYMKFFEENYSQEIPTRIKNLRKKHNITQSELGNAGQVSQVESGKRPITSSMLVYLNALTASNYTYIVFGELDEFIENLFHYFFSSILYRDLEAVDENLYSFMSDDLISIQSSCLSIAKTFANFNIQRKRFMISTETEMDTFHKKDDIDVWVGGKSYNPARSFRNNPINELTVIDFEEMADILLLMLRDNLIRSFEINVCNTLFELDKNGEPTTFNLDKIDSIINKWWSENVSTEIIPNLIKKLRENPLFNIGFMVNDILERMYKEDIPKSYLTSVPLVISKKARSTLSIKSNGSQKIDKSKFAQILSL | not soluble |
| MDSKEVLVHVKNLEKNKSNDAAVLEILHVLDKEFVPTEKLLRETKVGVEVNKFKKSTNVEISKLVKKMISSWKDAINKNKRSRQAQQHHQDHAPGNAEDKTTVGESVNGVQ | soluble |
| MWPLLKNNVVRTGRRYAVFQPRRFTPRPQHDAFGTKDDVRGFTVFSHAACGASLMDPLSPSRWEVALFPSSPPSLKDSCHLCAWTFGLAGPCAAWLSTRRELVGGFSKIIYIQNSAECWSVRETKRCCRICRWRSTSSSTDLRSNPYPIRWCYCWTMFPPMYPVLLLTASPVPTPLEHHHHHH | not soluble |
| MKNIKEKGSQALKITATVFILAVICMSSAASAANLHVDPEAEEGYTTIQAAVDAANAGDTIFVSPGTYVENLKIDKQVRIWSDSRNPENTIVRPSDPAESPVEITGERVTFSGFGVEDSEKAGILLSGATSCFINNNRAQNSKYGILLQDAESNNINGNVITLNEAGLRLESSRSNTIQDNLIAYNYGPGISLEESSRNIFFNNYFKNAENIEENAANADNTWQSTLTVKRNLIRGPYIGGNFWADIEGTGYSETCEDKNSNGICDASYTLNGGGSDNSPLFPKVPSAVTALENKLDAEAYELGMETRGVEVNETENPAGEQTGENGPEGEENKTAETEASENGTPAPGIGFAIMAAGAAYFLKRRKAAALEHHHHHH | not soluble |
| LAEGEEQIVARDGNSWLVDGVTPITDVMRSFAIEEFPQQQNYETIAGFMMYMLRKIPRRTDSVVYAGYKFEVVDIDNYKVDQLLVSRVE | not soluble |
| MVRVRPSCQVAQSDCGLACVHMLIQSFGISASLRKMRVTYAPGRDGLSLRALTQILSDFGLNSKVVKCSYSNLSRVPLPAIIAWEPAHYVVLEKRLGDSWRIVDPSSGRRWCSKKEIEANFRSFCVTGARGNTKVSEGQVSDDPSWKSLAVLLAGK | not soluble |
| KRKDITLLNPIVRKFQYGQHTVTLETGMMARQATAAVMVSMDDTAVFVTVVGQKKAKPGQDFFPLTVNYQERTYAAGRIPGSFFRREGRPSEGETLIARLIDRPIRPLFPEGFVNEVQVIATVVSVNPQVNPDIVAMIGASAALSLSGIPFNGPIGAARVGYINDQYVLNPTQDELKESKLDLVVAGTEAAVLMVESEAQLLSEDQMLGAVVFGHEQQQVVIQNINELVKEAGKPRWDWQPEPVNEALNARVAALAEARLSDAYRITDKQERYAQVDVIKSETIATLLAEDETLDENELGEILHAIEKNVVRSRVLAGEPRIDGREKDMIRGLDVRTGVLPRTHGSALFTRGETQALVTATLGTARDAQVLDELMGERTDTFLFHYNFPPYSVGETGMVGSPKRREIGHGRLAKRGVLAVMPDMDKFPYTVRVVSEITESNGSSSMASVCGASLALMDAGVPIKAAVAGIAMGLVKEGDNYVVLSDILGDEDHLGDMDFKVAGSRDGISALQMDIKIEGITKEIMQVALNQAKGARLHILGVMEQAINAPRGDISEFAPRIHTIKINPDKIKDVIGKGGSVIRALTEETGTTIEIEDDGTVKIAATDGEKAKHAIRRIEEITAEIEVGRVYTGKVTRIVDFGAFVAIGGGKEGLVHISQIADKRVEKVTDYLQMGQEVPVKVLEVDRQGRIRLSIKEATEQSQPAAAPEAPAAEQGEHHHHHH | soluble |
| MEQMIFIRKDDKVEVFSEEEELKGSYYRAILEDNPTKSGHNKLKVRYLTQLNEHRLAPLTEFVDQRFIRPVPSEDVNDGVVFVEGLMVDAYLKDGWWTGVVVKTMEDEKFLVYFDCPPDIIQFEKKKLRVHLDWTGFKWIRPDNKELVKSVFSCGTMVELRFDCAWIPVIVIKELEKDKRFLVKYWNKSYSCRESKNLIVDSLRLRPMQPPLSVGKYELLDHVEAFSGFEWRQGVVRGIVFEGRYMVSFGATKEASQFNHSDIRPPMEWEDGVWHKRTKPKRQKETSLDGNRNVQTKEPPGNEMADDVKKESGLPITLGVTATKNKTQGKVSPVPMKNGFGNESTREKMPEEPKIKYYTRKRKRGGLKLNSYINKTVLSSDRTPNVVKNSASNAEENHAKHTIMVLPFAKKSPVWKTYESLEVFKSVSHSLHFSPLFETKQDFREGYAIGMMVTYFGLLEKFKDLEADVPVSQLNSLKDSFSELEKHGFNVTTPLSRIDKLLALKDRQLYIMEELKGFDKEMTNEFSKAKQEFDDMEQKILEVKHKIIELQRQEAALKEQKEAEKEQKDAAWKKICQMESCAKDLNVELEDVEFEFETILSAPW | soluble |
| MSRSRQPPLVTGISPNEGIPWTKVTIRGENLGTGPTDLIGLTICGHNCLLTAEWMSASKIVCRVGQAKNDKGDIIVTTKSGGRGTSTVSFKLLKPEKIG | soluble |
| MGGLVSRCEAFSSSAEQKLSQGRNTSMDEKTTQTKPSRRPWFWKRIERTELPNPGSYEDINQEASAVLRPNLFDGFRFDFNYPLSAMFSMGHSIEMGSLQKPPGYAFSANYLSNHLVMLSRVDLSGHVNGRVFINHSPFLTSKIVAETSSQPNESKATWDLDYRGSDFCGQLKFGNMGIVALSYLQSVTPNLSLGGEGFYQGATGFSAITAAGRYVTHDGVATCTIASFGPLVASYCHRVNPRVTLATEFFWDLRSRDSLVTIGYKFDLRQATVTGQIDTNGRVAALLEEKINPGLSFLLSGEIDHSRQEYKFGFGVTIGQ | soluble |
| MGSDKIHHHHHHMLDKLWKKKNSMMVGIDIGSHSAKAVLLGQGNEGFIIEDFAIEPMPRGSVVDREIQDIEAVGAVIAKLRKKISAKATDAAAAVSGQTVITKLIYMDVALTEDELASQIEIEADSLIPFPLDEVSLDFETLDVNESDPSKVNVLLSAARTESIEARVAALDAGDFHAKVIDVESYAVGRAYDLCLTQLPDDAKDKVVAIVDIGSTVTLFSATDAGKHIYSRDQMFGGEQYTRSIVSYYNKSFEQAEEAKTSNDLPPNYTFEVLAPFHTVLMQQIRRAIQMFLTTSGQNKVDYLLISGGTAALEGIESLLTEELGIHTVIANPFNDMSCGESIEQAELANVAPQLMVATGLALRSFTPWHI | not soluble |
